The results in this text go back to paper PMC5173322, “Neurodegenerative disease mutations in TREM2 reveal a functional surface and distinct loss-of-function mechanisms” (eLife, 2016).

B1: human TREM2 ectodomain Y38C (domain or fragment, UniProt Q9NZC2 19-134, looked up)
chain: HNTTVFQGVAGQSLQVSCPCDSMKHWGRRKAWCRQLGEKGPCQRVVSTHNLWLLSFLRRWNGSTAITDDTLGGTLTITLRNLQPHDAGLYQCQSLHGSEADTLRKVLVEVLADPLD
notes: TREM2, human, ectodomain, limits as the WT ectodomain (amino acids 19-134), Nasu-Hakola disease mutation Y38C; it was detected by anti-6His Western blot; also called NHD mutant Y38C; source: Freestyle 293F cells, transfected, secreted; harvested for preparative SEC; not shown: His6, C-terminal, kept
B2: human TREM2 ectodomain V126G (domain or fragment, UniProt Q9NZC2 19-134, looked up)
chain: HNTTVFQGVAGQSLQVSCPYDSMKHWGRRKAWCRQLGEKGPCQRVVSTHNLWLLSFLRRWNGSTAITDDTLGGTLTITLRNLQPHDAGLYQCQSLHGSEADTLRKVLGEVLADPLD
notes: TREM2, human, ectodomain, limits as the WT ectodomain (amino acids 19-134), Nasu-Hakola disease mutation V126G; it was detected by anti-6His Western blot; also called NHD mutant V126G; source: Freestyle 293F cells, transfected, secreted; harvested for preparative SEC; not shown: His6, C-terminal, kept
B3: human TREM2 ectodomain T66M (domain or fragment, UniProt Q9NZC2 19-134, looked up)
chain: HNTTVFQGVAGQSLQVSCPYDSMKHWGRRKAWCRQLGEKGPCQRVVSMHNLWLLSFLRRWNGSTAITDDTLGGTLTITLRNLQPHDAGLYQCQSLHGSEADTLRKVLVEVLADPLD
notes: TREM2, human, ectodomain, limits as the WT ectodomain (amino acids 19-134), Nasu-Hakola disease mutation T66M; it was detected by anti-6His Western blot; also called NHD mutant T66M; source: Freestyle 293F cells, transfected, secreted; harvested for preparative SEC; not shown: His6, C-terminal, kept

This series deals with the molecule itself. Put plainly: SEC; preparative SEC of NHD mutant ectodomains harvested from 293F suspension cells; fractions analysed by anti-6His Western blot. For orientation: In gel filtration, larger molecules generally elute earlier.
For the protein B1, the binding result was “binds”.

With B2, the binding result is recorded as “binds”.

In the case of B3, the binding result was “binds”.
